# T1: human LAG-3(ECD)-mFc (human, UniProt P18627 23-450)
# T1 construct: also called hLAG3-mFc; human LAG-3 extracellular domain (ECD) fused to mouse Fc; not shown: mouse Fc
# T1 sequence: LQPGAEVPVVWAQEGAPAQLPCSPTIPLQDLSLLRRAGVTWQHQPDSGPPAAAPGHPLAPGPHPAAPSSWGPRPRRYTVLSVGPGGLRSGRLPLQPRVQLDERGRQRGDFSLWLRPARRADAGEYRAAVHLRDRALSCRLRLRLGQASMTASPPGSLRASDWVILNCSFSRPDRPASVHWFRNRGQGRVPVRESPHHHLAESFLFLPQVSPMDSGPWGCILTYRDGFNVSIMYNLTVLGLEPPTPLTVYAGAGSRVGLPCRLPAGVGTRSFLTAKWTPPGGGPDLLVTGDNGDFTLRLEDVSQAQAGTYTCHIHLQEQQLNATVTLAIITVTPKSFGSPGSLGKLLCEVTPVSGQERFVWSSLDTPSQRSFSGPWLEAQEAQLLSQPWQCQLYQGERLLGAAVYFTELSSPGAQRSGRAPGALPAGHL
# B1: B12 (human IgG1 heavy chain and kappa light chain chimeric) (antibody, V domains shown)
# VH: EVKLLESGGSLVQPGGSLKLSCAASGFDFSRYWMSWVRQAPGKGLEWIGEINPDSSTINYTPSLRDEFIISRDNAKNTLFLQMSKVISEDTALYYCARITSGYYFDYWGQGTTLTVSS
# VL: DVVMTQTPLSLPVSLGDQASISCRSSQTIVYSNGNTYLYWYLQKPGQSPKLLIYRVSNRFPGVPDRFSGSGSGTDFTLKISGVEAEDMGVYYCFQGTHVPFTFGSGTKLEMK
# notes: Chimeric: mouse VH and VL with human IgG1 heavy chain and kappa light chain constant regions
# Legend:
# human LAG-3(ECD)-mFc = target: T1, human LAG-3(ECD)-mFc; experiment: ELISA: chimeric IgG1 B12 with hLAG3-mFc in solution, captured on anti-human IgG, anti-mouse IgG-HRP
# Experimental: (§1) FIGS. 5A-5D show the effect of competition peptides on LAG-3 binding to anti-LAG-3 mAbs. […] B5/IgG4 was preincubated with a competition peptide for 30 minutes. Then human LAG-3 extracellular domain (ECD) fused to mouse Fc (hLAG3-mFc) was added (the final peptide concentration was 600-fold that of hLAG3-mFc) and the mixture was incubated for 60 minutes before being added to an ELISA plate coated with anti-human IgG. The incubation was carried out at 4° C. overnight. After washing, the hLAG3-mFc bound to the immobilized B5/IgG4 on the ELISA plate was detected by adding anti-mouse IgG conjugated to horseradish peroxidase (HRP) and incubating for 60 minutes. Then, after washing, the ELISA was developed using One-step Detection Solution and measured as the absorbance at 450 nm.
# Anti-human IgG in carbonate coating buffer was coated on an ELISA plate at 4° C. (50 μL/well at 1 μg/mL) overnight. […] The plate was washed and the binding of hLAG3-mFc to the immobilized anti-LAG-3 mAb was detected by adding anti-mouse IgG conjugated to horseradish peroxidase ([…]) (ThermoFisher Scientific, Cat#: A16084; Waltham, Mass.) and incubating for 60 minutes.
# B5/IgG4 = target: T2, B5/IgG4; experiment: ELISA peptide competition: peptide preincubated with B5/IgG4, competitor hLAG3-mFc; capture on anti-human IgG, anti-mouse IgG-HRP
# T2 construct: Chimeric: mouse VH and VL with human IgG4 heavy chain and kappa light chain constant regions; also called B5 (human IgG4 heavy chain and kappa light chain chimeric)
# Experimental: as §1
# (§2) Anti-human IgG in carbonate coating buffer was coated on an ELISA plate at 4° C. (50 μL/well at 1 μg/mL) overnight. In each well of a separate plate, a chimeric version of a given anti-LAG-3 mAb (50 μL/well at 1.4 nM) and a competition peptide (50 μL/well at various concentrations as indicated in the figures) were mixed and incubated for 30 minutes at room temperature. Then human LAG-3 extracellular domain (ECD) fused to mouse Fc (hLAG3-mFc) was added to each well (50 μL/well at 2 nM) and the final mixture was incubated at room temperature for 60 minutes before added to the ELISA plate (50 μL/well) for another 60-minute incubation. The final incubation after adding the mixture to the ELISA plate was also performed at 4° C. overnight in some assays. The plate was washed and the binding of hLAG3-mFc to the immobilized anti-LAG-3 mAb was detected by adding anti-mouse IgG conjugated to horseradish peroxidase ([…]) (ThermoFisher Scientific, Cat#: A16084; Waltham, Mass.) and incubating for 60 minutes.
# [1] = target: B1; experiment: ELISA peptide competition: peptide preincubated with chimeric IgG1 B12, competitor hLAG3-mFc; capture on anti-human IgG, anti-mouse IgG-HRP
# Experimental: as §1, §2
# [2] = target: T3, BG29 (human IgG4 heavy chain and kappa light chain chimeric); experiment: ELISA peptide competition: peptide preincubated with chimeric IgG4 BG29, competitor hLAG3-mFc; peptide at 200-fold hLAG3-mFc; capture on anti-human IgG, anti-mouse IgG-HRP
# T3 construct: Chimeric: mouse VH and VL with human IgG4 heavy chain and kappa light chain constant regions; also called chimeric BG29
# T3 sequence (VH, as listed by the source, chain 1 of 2): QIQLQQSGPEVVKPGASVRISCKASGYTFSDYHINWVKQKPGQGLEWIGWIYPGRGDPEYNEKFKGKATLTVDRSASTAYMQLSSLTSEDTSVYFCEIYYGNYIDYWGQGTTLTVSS
# T3 sequence (VL, as listed by the source, chain 2 of 2): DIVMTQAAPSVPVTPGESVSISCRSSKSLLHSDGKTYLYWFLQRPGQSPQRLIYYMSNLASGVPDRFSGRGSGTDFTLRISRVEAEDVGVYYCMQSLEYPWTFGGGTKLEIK
# Experimental: as §1, §2
# [3] = target: B1; experiment: ELISA peptide competition: peptide preincubated with chimeric IgG1 B12, competitor hLAG3-mFc; peptide at 600-fold hLAG3-mFc; capture on anti-human IgG, anti-mouse IgG-HRP
# Experimental: as §1, §2
# B7/IgG4 = target: T4, B7/IgG4; experiment: ELISA peptide competition: peptide preincubated with B7/IgG4, competitor hLAG3-mFc; final incubation 60 min at room temperature; anti-mouse IgG-HRP
# T4 construct: Chimeric: mouse VH and VL with human IgG4 heavy chain and kappa light chain constant regions; also called B7 (human IgG4 heavy chain and kappa light chain chimeric)
# T4 sequence (VH, as listed by the source): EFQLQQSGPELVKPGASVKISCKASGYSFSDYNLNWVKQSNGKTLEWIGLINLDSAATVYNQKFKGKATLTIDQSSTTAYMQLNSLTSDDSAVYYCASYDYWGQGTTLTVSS
# Experimental: B5/IgG4 was preincubated with a competition peptide for 30 minutes. Then human LAG-3 extracellular domain (ECD) fused to mouse Fc (hLAG3-mFc) was added (the final peptide concentration was 600-fold that of hLAG3-mFc) and the mixture was incubated for 60 minutes before being added to an ELISA plate coated with anti-human IgG. The incubation was carried out at 4° C. overnight. After washing, the hLAG3-mFc bound to the immobilized B5/IgG4 on the ELISA plate was detected by adding anti-mouse IgG conjugated to horseradish peroxidase (HRP) and incubating for 60 minutes. Then, after washing, the ELISA was developed using One-step Detection Solution and measured as the absorbance at 450 nm.
# The assay condition is the same as in FIG. 5A except that the final incubation of the mAb, the competition peptide, and hLAG3-mFc on the ELISA plate was performed at room temperature for 60 minutes instead of incubation at 4° C. overnight.
# Anti-human IgG in carbonate coating buffer was coated on an ELISA plate at 4° C. (50 μL/well at 1 μg/mL) overnight. In each well of a separate plate, a chimeric version of a given anti-LAG-3 mAb (50 μL/well at 1.4 nM) and a competition peptide (50 μL/well at various concentrations as indicated in the figures) were mixed and incubated for 30 minutes at room temperature. Then human LAG-3 extracellular domain (ECD) fused to mouse Fc (hLAG3-mFc) was added to each well (50 μL/well at 2 nM) and the final mixture was incubated at room temperature for 60 minutes before added to the ELISA plate (50 μL/well) for another 60-minute incubation.
binding result (B5/IgG4),binding result (B7/IgG4),Binder,other results
,,B1,binding result (human LAG-3(ECD)-mFc): binds
no binding (tested: 600-fold hLAG3-mFc),,QPDSGPPAAAPGHP (also called peptide Q14) [Q14],binding result [1]: no binding (tested: 600-fold hLAG3-mFc)
no binding (tested: 600-fold hLAG3-mFc),,QPDSGPPAAAPGHPL (also called peptide Q15) [Q15],binding result [1]: no binding (tested: 600-fold hLAG3-mFc)
no binding (tested: 600-fold hLAG3-mFc),,PAAAPGHPLAPG (also called peptide 3-14) [3-14],binding result [2]: binds; binding result [3]: binds
,no binding (tested: 600-fold hLAG3-mFc),SSWGPRPRRY (also called peptide 21-30) [21-30],
,no binding (tested: 600-fold hLAG3-mFc),PHPAAPSSWGPR (also called peptide 15-26) [15-26],
,no binding (tested: 600-fold hLAG3-mFc),PSSWGPRPRRY (also called peptide 20-30) [20-30],

# Source: patent US20210032331A1 (PHANES THERAPEUTICS, published 2021)
